According to US7250269B2, “Composition for assaying glycoprotein” (Asahi Kasei Pharma Corporation, priority 2001, dated 2007):
Substitutions are numbered along the chain they refer to.

B1: Trypsin: protease, origin Cow pancreas (protein, UniProt P00760 24-246, looked up)
Serine protease 1: IVGGYTCGANTVPYQVSLNSGYHFCGGSLINSQWVVSAAHCYKSGIQVRLGEDNINVVEGNEQFISASKSIVHPSYNSNTLNNDIMLIKLKSAASLNSRVASISLPTSCASAGTQCLISGWGNTKSSGTSYPDVLKCLKAPILSDSSCKSAYPGQITSNMFCAGYLEGGKDSCQGDSGGPVVCSGKLQGIVSWGSGCAQKNKPGVYTKVCNYVSWIKQTIASN
B2: Carboxypeptidase Y: protease, origin Yeast (protein, UniProt P00729 112-532, looked up)
Carboxypeptidase Y: KIKDPKILGIDPNVTQYTGYLDVEDEDKHFFFWTFESRNDPAKDPVILWLNGGPGCSSLTGLFFELGPSSIGPDLKPIGNPYSWNSNATVIFLDQPVNVGFSYSGSSGVSNTVAAGKDVYNFLELFFDQFPEYVNKGQDFHIAGESYAGHYIPVFASEILSHKDRNFNLTSVLIGNGLTDPLTQYNYYEPMACGEGGEPSVLPSEECSAMEDSLERCLGLIESCYDSQSVWSCVPATIYCNNAQLAPYQRTGRNVYDIRKDCEGGNLCYPTLQDIDDYLNQDYVKEAVGAEVDHYESCNFDINRNFLFAGDWMKPYHTAVTDLLNQDLPILVYAGDKDFICNWLGNKAWTDVLPWKYDEEFASQKVRNWTASITDEVAGEVKSYKHFTYLRVFNGGHMVPFDVPENALSMVNEWIHGGFSL
B3: Carboxypeptidase A: protease, origin Cow pancreas (protein, UniProt P00730 111-419, looked up)
Carboxypeptidase A1: ARSTNTFNYATYHTLDEIYDFMDLLVAEHPQLVSKLQIGRSYEGRPIYVLKFSTGGSNRPAIWIDLGIHSREWITQATGVWFAKKFTEDYGQDPSFTAILDSMDIFLEIVTNPDGFAFTHSQNRLWRKTRSVTSSSLCVGVDANRNWDAGFGKAGASSSPCSETYHGKYANSEVEVKSIVDFVKDHGNFKAFLSIHSYSQLLLYPYGYTTQSIPDKTELNQVAKSAVEALKSLYGTSYKYGSIITTIYQASGGSIDWSYNQGIKYSFTFELRDTGRYGFLLPASQIIPTAQETWLGVLTIMEHTLNNLY
B4: Papain: protease, origin Papaya (protein, UniProt P00784 134-345, looked up)
Papain: IPEYVDWRQKGAVTPVKNQGSCGSCWAFSAVVTIEGIIKIRTGNLNEYSEQELLDCDRRSYGCNGGYPWSALQLVAQYGIHYRNTYPYEGVQRYCRSREKGPYAAKTDGVRQVQPYNEGALLYSIANQPVSVVLEAAGKDFQLYRGGIFVGPCGNKVDHAVAAVGYGPNYILIKNSWGTGWGENGYIRIKRGTGNSYGVCGLYTSSFYPVKN
B5: Proteinase K: protease, origin Tritirachium (protein, UniProt P06873 106-384, looked up)
Proteinase K: AAQTNAPWGLARISSTSPGTSTYYYDESAGQGSCVYVIDTGIEASHPEFEGRAQMVKTYYYSSRDGNGHGTHCAGTVGSRTYGVAKKTQLFGVKVLDDNGSGQYSTIIAGMDFVASDKNNRNCPKGVVASLSLGGGYSSSVNSAAARLQSSGVMVAVAAGNNNADARNYSPASEPSVCTVGASDRYDRRSSFSNYGSVLDIFGPGTSILSTWIGGSTRSISGTSMATPHVAGLAAYLMTLGKTTAASACRYIADTANKGDLSNIPFGTVNLLAYNNYQA
B6: Reactive 327th amino acid Tryptophan: mutant obtained by replacing the lysine with tryptophan, named FOD-W; plasmid pcmFOD3; Sequence ID No. 2 (protein)
chain: ASTLTKQSQILIVGGGTWGCSTALHLARRGYTNVTVLDVNRIPSPISAGHDVNKLAGRLSTADSKGDDEDSIWKALSYAAAQGWLHDPVFQPFCHNTGSVVAGSTPKSIKQLVEDEIGDDIDQYTPLNTAEDFRKTMPEGILTGNFPGWKGFYKPTGSGWVHARKAMKAAFEESERLGVKFITGSPEGKVESLIFEDGDVRGAKTADGKEHRADRTILSAGASAEFFLDFENQIQPTAWTLGHIQMTPEETKLYKNLPPLFNINQGFFMEPDEDLHQLKMCDEHPGYCNWVEKPGSKYPQSIPFAKHQVPTEAERRMKQFLKDIMPQLADRPLVHARICWCADTQDRMFLITYHPRHPSLVIASGDCGTGYWHITSIGKFISDCMEGTLEERFAKFWRWRPEKFTEFWGKDPLDRFGADDKIMDLPKSDVEGWTNIKNDI
modifications: sequence derived from Fusarium oxysporum IFO- 9722
B7: Reactive 327th amino acid Lysine (wild type): wild type fructosyl amino acid oxidase (FOD) originating from Fusarium oxysporm IFO-9972, Sequence ID No. 1 (protein)
chain: B6 chain with W372K
B8: Reactive 327th amino acid Valine: mutant obtained by replacing the lysine with valine, named FOD-V; plasmid pcmFOD5; Sequence ID No. 4 (protein)
chain: B6 chain with W372V
modifications: sequence derived from Fusarium oxysporum IFO- 9722
B9: Alcalase: protease, origin Bacillus (protein, UniProt P00780 106-379, looked up)
Subtilisin Carlsberg: AQTVPYGIPLIKADKVQAQGFKGANVKVAVLDTGIQASHPDLNVVGGASFVAGEAYNTDGNGHGTHVAGTVAALDNTTGVLGVAPSVSLYAVKVLNSSGSGSYSGIVSGIEWATTNGMDVINMSLGGASGSTAMKQAVDNAYAKGVVVVAAAGNSGSSGNTNTIGYPAKYDSVIAVGAVDSNSNRASFSSVGAELEVMAPGAGVYSTYPTNTYATLNGTSMASPHVAGAAALILSKHPNLSASQVRNRLSSTATYLGSSFYYGKGLINVEAAAQ

Experiments:
[1] = molecular target: T1, Hb substrate solution: Hemoglobin Human (Homo sapiens, UniProt P68871+P69905); assay: Activity of various proteases on Hb substrate solution (R-FOD assay); type: biochemical; details: pH 8.0; 37° C. for 60 minutes
T1 construct: purchased Sigma-Aldrich Co
T1 sequence (P69905 2-142 limits assumed): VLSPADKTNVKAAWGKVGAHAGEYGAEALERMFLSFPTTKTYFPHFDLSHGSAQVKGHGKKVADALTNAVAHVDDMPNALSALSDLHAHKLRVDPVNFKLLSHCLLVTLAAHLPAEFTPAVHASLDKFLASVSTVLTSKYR
T1 sequence (P68871 2-147 limits assumed): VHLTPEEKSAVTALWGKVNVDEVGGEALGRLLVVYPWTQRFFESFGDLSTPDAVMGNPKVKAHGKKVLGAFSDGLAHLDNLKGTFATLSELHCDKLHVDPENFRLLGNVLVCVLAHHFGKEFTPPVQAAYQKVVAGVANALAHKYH
Description: (§1) • 1. […] GA % was assayed using a glycated albumin analyzer (GAA-2000, manufactured by ARKRAY, Inc.). • 2. G-II and III substrate solutions, FRA value=48 μmol/L [Globulins Human Cohn Fraction II and III; 16.9 mg/ml (manufactured by Sigma-Aldrich Co.)] • 3. G-IV substrate solution, FRA value=26 μmol/L [Globulins Human Cohn Fraction IV; 6 mg/ml (manufactured by Sigma-Aldrich Co.)] • 4. G-I substrate solution, FRA value=77 μmol/L [Glovenin I: immunoglobulin preparation (manufactured by Takeda Chemical Industries, Ltd.)] • 5. Hb substrate solution: Hemoglobin Human; 55 mg/ml, glycated hemoglobin rate: HbA1c=4.5% [manufactured by Sigma-Aldrich Co., the HbA1c value was determined using a glycated hemoglobin analyzer (Hi-Auto A1C HA-8150, manufactured by ARKRAY, Inc.)].
For the Hb substrate solution, 150 μl of the substrate solution, 60 μl of 200 mg/ml protease solution (a solution with a concentration as close to 200 mg/ml as possible if a 200 mg/ml solution cannot be prepared, or as is if the protease solution is liquid), and 5 μl of 1 M Tris buffer solution (pH 8) were thoroughly mixed and reacted at 37° C. for 60 minutes. The reaction solution was filtered through 10,000 NMWL membrane (Ultrafree MC, manufactured by Millipore Corp.). The filtrate was served as the protease reaction sample. The same procedure was conducted using distilled water instead of the substrate to prepare a blank sample.
(§2) 300 μl of the above reaction solution for assaying glycated amino acids was added to a cell and incubated for three minutes at 37° C. […] 30 μl of the protease reaction sample was then added to the cell and incubated for five minutes at 37° C. […] The same procedure was conducted using the blank sample instead of the protease reaction sample. Absorbances (A0 blank and A1 blank) were measured. The reaction of protease with glycated proteins is indicated by the following absorbance change. ΔA=(A1−A0)−(A1 blank−A0 blank)

[2] = test system: G-I substrate solution (Glovenin I: immunoglobulin preparation); assay: Activity of various proteases on G-I substrate solution (R-FOD assay); type: biochemical; details: pH 8.0, 37° C. for 30 minutes
Description: as §1
(§3) 200 μl of a substrate solution other than Hb, 40 μl of 100 mg/ml protease solution (a solution with a concentration as close to 100 mg/ml as possible if a 100 mg/ml solution cannot be prepared, or as is if the protease solution is liquid), and 10 μl of 1 M Tris buffer solution (pH 8) were thoroughly mixed and reacted at 37° C. for 30 minutes. The reaction solution was filtered through 10,000 NMWL membrane (Ultrafree MC, manufactured by Millipore Corp.) The filtrate was served as the protease reaction sample. The same procedure was conducted using distilled water instead of the substrate to prepare a blank sample.
as §2

[3] = molecular target: T2, HSA substrate solution; Albumin Human (Homo sapiens, UniProt P02768); assay: Activity of various proteases on HSA substrate solution (released glycated amino acids/peptides assayed with R-FOD); type: biochemical; details: pH 8.0; 37° C. for 30 minutes
T2 construct: purchased Sigma-Aldrich Co
Description: as §1, §3, §2

[4] = FOD enzyme activity / substrate specificity on glycated valine; type: biochemical
Description: (§4) 164 strains of mutant colonies obtained in Example 15 were cultured for 16 hours at 30° C. in 1.5 ml of a 3.7% BHI liquid medium (manufactured by DIFCO Co.) containing 50 μg/ml of ampicillin and 1 mM of IPTG. 1 ml of the culture broth was centrifuged (15,000 G for one minute at 4° C.) to collect cells. 200 μl of 10 mM Tris-HCl buffer solution (pH 8.0) was added to the collected cells. After crushing the cells using an ultrasonic breaker, the mixture was centrifuged (14,000 G for five minutes at 4° C.) to obtain a cell extract as a supernatant.
(§5) The glycated amino acid substrate specificity of FOD-mutated recombinant contained in the cell extract prepared in Example 16 was measured using the above-mentioned FOD enzyme activity measuring method.
(§6) Synthesis of an oligonucleotide having the base sequence of 1-27 in the sequence table Sequence ID No. 7 was consigned to an outside source (BEX Co., Ltd.). The oligonucleotide was subjected to the site-directed mutagenesis using the Mutan-K kit (manufactured by Takara Shuzo Co., Ltd.) according to the manual attached to the kit. The mutant gene obtained was incorporated again into the expression plasmid pTV119N, introduced into Escherichia coli host, and cultured at 30° C. for 16 hours in a 3.7% BHI liquid medium containing 50 μg/ml of ampicillin and 1 mM of IPTG to produce mutant FOD protein.

[5] = FOD enzyme activity / substrate specificity on glycated lysine; type: biochemical
Description: as §4, §5, §6

[6] = Isoelectric point by focusing electrophoresis; type: physicochemical; details: 700 V for 40 hours at 4° C.; carrier ampholyte
Description: The isoelectric point determined by fractionating the enzyme after applying a constant voltage of 700 V for 40 hours at 4° C. in a focusing electrophoresis using carrier ampholyte, followed by measuring the enzyme activity of each fraction, was pH 4.3±0.2.

Molecule	ΔA Hb [1] [mAbs]	ΔA Gl [2] [mAbs]	ΔA HSA [3] [mAbs]	Reactivity ratio, glycated lysine / glycated valine [5]	also measured
B1	<1	15	11		
B2	4	14	2		
B3	13	50	<1		
B4	<1	5	15		
B5	32	45	79		
B6				2980	Substrate specificity FV [4]: 0%; Substrate specificity ZFL [5]: 100%; Optimum temperature (maximum activity) (40 mM Tris-HCl buffer solution (pH 7.5)): 50 °C; Optimum pH (maximum activity) (100 mM buffers pH 4.4-10.3): 7.5; Isoelectric point [6]: 4.3±0.2
B7				9.5	
B8				1930	
B9	17	49	92		
